Each block holds one substance with its values, some of them ahead of it.
Target: Cy5-labeled proliferating cell nuclear antigen (PCNA) (human) (UniProt P12004)
Sequence (P12004 whole entry): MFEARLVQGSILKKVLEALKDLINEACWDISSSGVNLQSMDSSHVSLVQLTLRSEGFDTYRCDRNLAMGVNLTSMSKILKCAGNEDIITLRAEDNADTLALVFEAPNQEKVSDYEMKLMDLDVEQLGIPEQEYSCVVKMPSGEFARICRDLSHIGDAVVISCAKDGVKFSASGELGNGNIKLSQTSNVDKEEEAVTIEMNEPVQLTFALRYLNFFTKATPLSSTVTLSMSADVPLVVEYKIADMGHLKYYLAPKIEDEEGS

Sequence of ΔN-PAF15 (truncated PAF15 variant lacking residues 2-31) (Q15004 32-111, stated change not applied): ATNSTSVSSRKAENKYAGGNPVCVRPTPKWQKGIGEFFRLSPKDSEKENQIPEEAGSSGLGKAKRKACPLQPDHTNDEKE
Sequence of Doubly monoubiquitinated PAF15 (Di-UbPAF15) (Q15004 whole entry, looked up): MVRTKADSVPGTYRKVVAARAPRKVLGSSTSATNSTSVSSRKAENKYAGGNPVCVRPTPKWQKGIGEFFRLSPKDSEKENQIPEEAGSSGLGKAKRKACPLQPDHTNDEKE
Sequence of PAF15^50–77 peptide (Q15004 50-77): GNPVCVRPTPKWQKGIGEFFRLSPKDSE

diffusion constant of Cy5-PCNA on DNA with 1 μM Di-UbPAF15: 0.2 μm2/s
Substance: Doubly monoubiquitinated PAF15 (Di-UbPAF15) (from UniProt Q15004 2-111) (complex)

diffusion constant of Cy5-PCNA on DNA with 20 μM PAF15 50-77: 0.22 μm2/s
Substance: PAF15^50–77 peptide

diffusion constant of Cy5-PCNA on DNA with 1 μM ΔN-PAF15: 0.15 μm2/s
Substance: ΔN-PAF15 (truncated PAF15 variant lacking residues 2-31) (from UniProt Q15004 32-111) (domain or fragment)

From doi:10.1101/2025.11.15.688598
